Consider 14 molecules from patent US20200299408A1 (Genentech, published 2020).

One experiment concerns the target T1, cyCD3εγ (cynomolgus monkey).
T1 chain 1: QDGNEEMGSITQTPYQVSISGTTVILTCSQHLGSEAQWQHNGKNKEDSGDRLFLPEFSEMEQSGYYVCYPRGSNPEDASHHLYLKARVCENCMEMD
T1 chain 2: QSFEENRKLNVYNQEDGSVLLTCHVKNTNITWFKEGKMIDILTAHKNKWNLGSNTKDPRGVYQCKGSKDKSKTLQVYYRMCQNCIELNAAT
Kind of experiment: monovalent binding affinity, method not stated on the sheet.

The target in experiment [1] is T2, human CD3 on T cells (human, UniProt P07766 22-207).
T2 construct: whole, on cells; On cells CD3ε stands in the CD3/TCR complex; also called CD3 antigen; CD3ε
Kind of experiment: FACS on Jurkat cells (CD3), anti-huIgG-PE; number printed beside the curve without a quantity name, taken as EC50. The procedure: (§1) Binding affinities for the each of the CD3/CD20 TDBs were tested by Biacore or FACS analysis, as described above for the anti-CD3 antibodies. Briefly, for Biacore binding assays, human CD3εγ was immobilized on Biacore Series S CM5 sensor chip using the amine coupling kit from Biacore and CD3/CD20 TDBs or Fab variants thereof were in the flow through. For FACS binding assays, either Bjab cells (for B cell antigens) or Jurkat cells (for CD3 antigen) were incubated with various concentrations of TDB antibodies at 4° C. for 30 minutes, then cells were washed and incubated with 2nd antibody (anti-huIgG-PE; BD Bioscience) for another 15 minutes, before cells were washed again and ready for FACS analysis.

Experiment [2] has as its target T2, human CD3 on T cells. Described as above. How it is done:
as §1
This is another data set of the same source.

The target in experiment [3] is T3, single chain human CD3ε-26mer-CD3γ (CD3εγ) (human).
T3 construct: also called human CD3εγ
T3 chain: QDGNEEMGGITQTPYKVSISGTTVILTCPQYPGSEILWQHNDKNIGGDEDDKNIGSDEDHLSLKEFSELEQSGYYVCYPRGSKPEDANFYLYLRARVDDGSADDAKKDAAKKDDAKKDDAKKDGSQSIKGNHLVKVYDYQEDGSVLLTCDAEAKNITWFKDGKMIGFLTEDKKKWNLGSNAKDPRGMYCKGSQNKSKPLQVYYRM
Kind of experiment: Biacore, monovalent KD of the CD3 arm; CD3 antigen not named on the sheet (reactivity hu, cyno). On the technique in general: SPR reads the build-up and loss of mass on a sensor chip optically.

In the next experiment the target is T4, Commercial hCD3eg.
T4 chain 1: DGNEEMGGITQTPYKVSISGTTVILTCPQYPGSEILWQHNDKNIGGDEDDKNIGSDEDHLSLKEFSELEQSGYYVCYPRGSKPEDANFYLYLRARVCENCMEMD
T4 chain 2: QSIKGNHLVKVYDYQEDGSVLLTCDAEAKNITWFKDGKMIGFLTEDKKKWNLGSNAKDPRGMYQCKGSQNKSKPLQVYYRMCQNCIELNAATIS
Description: mu IgG against commercial hCD3eg; method not stated on the sheet.

Experiment [4] has as its target T5, commercial CD3ε (Creative Biomart, Catalog Number CD3E-2194H) (human, UniProt P07766).
T5 construct: commercial recombinant protein; also called commercial CD3E
Description: binding affinity on commercial CD3ε (Creative Biomart CD3E-2194H); method not stated in the legend.

Experiment [5] has as its target T2, human CD3 on T cells. Kind of experiment: FACS on Jurkat cells (CD3), anti-huIgG-PE; number printed beside the curve without a quantity name, taken as EC50. The procedure: as §1
This is another data set of the same source.

Experiment [6] deals with T3, single chain human CD3ε-26mer-CD3γ …. Kind of experiment: Biacore, human CD3εγ on chip, TDB in flow through. The procedure:
as §1

The target of experiment [7] is T2, human CD3 on T cells. Description: FACS on Jurkat cells (CD3); EC50 table for the curves of FIGS. 21A-21B; source CHO (N297G). How it is done:
as §1

For experiment [8], the target named is T2, human CD3 on T cells. Description: Scatchard; table headed 'Bivalent Binding Affinity', though its footnote reads 'monovalent binding Kd measured by scatchard'; cells not named.

Changes are numbered by the printed parent chain. Names and notes keep the numbering of the source. Values joined by “and” are separate entries in the source; they are usually repeats but may differ in a detail not shown here. Identical values can stand only once.

B1: SP34v52 Fab (Fab, V domains shown)
VH: EVQLVESGGGLVQPGGSLRLSCAASGFTFNTYAMNWVRQAPGKGLEWVARIRSKYNNYATYYADSVKDRFTISRDDSKNTLYLQMNSLRAEDTAVYYCVRHGNFGNSYVSWFAYWGQGTLVTVSS
VL: EAVVTQEPSLTVSPGGTVTLTCRSSTGAVTTSNYANWVQQKPGQAPRGLIGGTNKRAPWTPARFSGSLLGGKAALTLSGAQPEDEAEYYCALWYSNLWVFGGGTKLTVL
Molecule B1 yielded a Kd with cyCD3εγ of 12 nM.

B2: KH CD20 2H7v16/SP34v52 (bispecific antibody, V domains shown)
VH 1: EVQLVESGGGLVQPGGSLRLSCAASGYTFTSYNMHWVRQAPGKGLEWVGAIYPGNGDTSYNQKFKGRFTISVDKSKNTLYLQMNSLRAEDTAVYYCARVVYYSNSYWYFDVWGQGTLVTVSS
VL 1: DIQMTQSPSSLSASVGDRVTITCRASSSVSYMHWYQQKPGKAPKPLIYAPSNLASGVPSRFSGSGSGTDFTLTISSLQPEDFATYYCQQWSFNPPTFGQGTKVEIK
VH 2: B1 VH
VL 2: B1 VL
modifications: Knob-into-hole full-length IgG; constant regions are not in the letters.
notes: full-length knob-into-hole human IgG1 TDB; also called CD3/CD20 TDB 2H7v16/SP34v52
On to B2, for which the EC50 (commonly the concentration needed to bring the measured effect to its halfway point) in the experiment with human CD3 on T cells [1] is 0.6 µg/mL and 4 nM; with human CD3 on T cells [2], 1.11 µg/mL.

B3: murine SP34 (antibody, V domains shown)
VH: B1 VH with G15K, R19K, K78Q, N79S, T80I, S87N, R89K, A90T, V95M
VL: QAVVTQESALTTSPGETVTLTCRSSTGAVTTSNYANWVQEKPDHLFTGLIGGTNKRAPGVPARFSGSLIGDKAALTITGAQTEDEAIYFCALWYSNLWVFGGGTKLTVL
notes: KD is printed as monovalent
On to B3, for which the Kd in experiment [3] came to 1.9 nM.

B4: 19B1 (antibody, IgG2b, V domains shown)
VH: EVQLQQSGPELVKPGASVRISCKASGYTFTSYYIHWMKQRPGQGLEWIGWIYPGNVNTKYNEKFKGKATLTADNSSSTANMQLSSLTSEDSAVYFCARNHDYYFDYWGQGTTLTVSS
VL: GIVMTQSPSSLAVSAGEKVTMSCKSSQSLLNSRTRKNYLAWYQQKPGQSPKLLIYWASTRESGVPDRFTGSGSGTDFTLTISSVQAEDLAVYYCKQSYILRTFGGGTKLEIK
notes: mouse hybridoma clone; also called 19B1 (xCD3)
In the experiment with Commercial hCD3eg, B4 registered a Kd of 0.7 nM.

B5: 72H6 (antibody, IgG2a, V domains shown)
VH: EVQLQQSGPELVKPGASVKISCKASGYSFTSYYIHWVKQRPGQGLEWIGWIFPGSDNTKYNEKFKGKATLTADTSSSTAYMQLSSLTSEDSAVYFCARNGNYAMDYWGQGTSVTVSS
VL: B4 VL with G1E, M4L, T5S, I99T
notes: mouse hybridoma clone; also called 72H6 (xCD3)
Consider B5, for which, in the experiment with Commercial hCD3eg, the Kd came to 2.5 nM.

B6: murine 38E4 (antibody, V domains shown)
VH: QVQLQQSGPELVKPGASVTISCTASGFTFTSYYIHWVRQRPGQGLEWIGWIYPENDNTKYNEKFKDKATLTADTSSSTAYMQLSSLTSEDSAVYYCARDGYSRYYFDYWGQGTTLTVSS
VL: B4 VL with G1D, S10F, K45R, A57T, E61K, V91I, Y98F
notes: KD is printed as monovalent
As to B6, the Kd in experiment [3] was 0.75 nM.

B7: humanized 40G5c variant: VH1 graft + V67A + I69L + R71A / K4 graft (antibody, V domains shown)
VH: EVQLVQSGAEVKKPGASVKVSCKASGYTFTNYYIHWVRQAPGQGLEWIGWIYPGDGNTKYNEKFKGRATLTADTSTSTAYLELSSLRSEDTAVYYCARDSYSNYYFDYWGQGTLVTVSS
VL: DIVMTQSPDSLAVSLGERATINCKSSQSLLNSRTRKNYLAWYQQKPGQPPKLLIYWASTRESGVPDRFSGSGSGTDFTLTISSLQAEDVAVYYCTQSFILRTFGQGTKVEIK
Regarding B7, the Kd in experiment [4] came out at 24 nM.

B8: KH CD20 2H7v16/hu40G5c (bispecific antibody, V domains shown)
VH 1: B2 VH 1
VL 1: B2 VL 1
VH 2: B7 VH
VL 2: B7 VL
modifications: Knob-into-hole full-length IgG; constant regions are not in the letters.
notes: also called KH CD20 2H7v16/40G5c; CD20KH (2H7v16/40G5c)
Regarding B8, the EC50 with human CD3 on T cells [1] was 1.25 µg/mL and 8.3 nM; with human CD3 on T cells [5] it was 1.6 µg/mL and 11 nM; with human CD3 on T cells [2], 1.21 µg/mL.

B9: KH CD20 2H7v16/38E4v1 (bispecific antibody)
anti-CD20 arm heavy chain: B2 VH 1
anti-CD20 arm light chain: B2 VL 1
anti-CD3 arm heavy chain: B7 VH with Y27F, N31S, G54E, D55N, G56D, G66D, A68V, L70I, S100G, N103R
anti-CD3 arm light chain: B7 VL with P49S, A57T, E61K, T95K
notes: also called 38E4v1 CHO
Turning to B9, in the experiment with human CD3 on T cells [1], the concentration giving a half-maximal response (EC50) is 0.243 µg/mL and 1.6 nM. In [6], the Kd is 1.28 nM and 1.3 nM; the off-rate constant (koff) (commonly the rate constant with which the complex falls apart) came to 0.00515 s⁻¹; the association rate constant (kon) (as a rule, the rate constant with which the complex forms) was determined as 4.03e+06 M⁻¹ s⁻¹. Besides, the concentration for a half-maximal effect (EC50) with human CD3 on T cells [7] was 0.24 µg/mL and ~1.6 nM.

B10: KH CD20 2H7v16/hu38E4c (bispecific antibody)
anti-CD20 arm heavy chain: B2 VH 1
anti-CD20 arm light chain: B2 VL 1
anti-CD3 arm heavy chain: B7 VH with Y27F, N31S, G54E, D55N, G56D, G66D, A68V, L70I
anti-CD3 arm light chain: B7 VL with P49S, A57T, E61K
notes: also called CD3/CD20 TDB 2H7v16/38E4c
With B10, the EC50 in the experiment with human CD3 on T cells [2] amounted to 1.01 µg/mL.

B11: humanized 40G5c variant: VH1 graft + I69L + R71A / K4 graft (antibody, V domains shown)
VH: B7 VH with A68V
VL: B7 VL
The molecule B11 returned a Kd in experiment [4] of 36 nM.

B12: humanized 40G5c variant: VH1 graft + V67A + R71A / K4 graft (antibody, V domains shown)
VH: B7 VH with L70I
VL: B7 VL
B12 displayed a Kd in experiment [4] of 37 nM.

B13: K&H 2H7v16/hu UCHT1v1 (bispecific antibody, V domains shown)
VH 1: B2 VH 1
VL 1: B2 VL 1
VH 2: EVQLVESGGGLVQPGGSLRLSCAASGYSFTGYTMNWVRQAPGKGLEWVALINPYKGVTTYADSVKGRFTISVDKSKNTAYLQMNSLRAEDTAVYYCARSGYYGDSDWYFDVWGQGTLVTVSS
VL 2: DIQMTQSPSSLSASVGDRVTITCRASQDIRNYLNWYQQKPGKAPKLLIYYTSRLESGVPSRFSGSGSGTDYTLTISSLQPEDFATYYCQQGNTLPWTFGQGTKVEIK
modifications: Knob-into-hole full-length IgG; constant regions are not in the letters.
notes: also called CD3/CD20 TDB 2H7v16/UCHT1v1
For the molecule B13, in the experiment with human CD3 on T cells [8], the Kd worked out at 300 nM.

B14: CD20KH (2H7v16/21A9) (bispecific antibody, V domains shown)
VH 1: B2 VH 1
VL 1: B2 VL 1
VH 2: EVQLVESGGGVVQPGGSLKLSCAASGFTFSGSAMHWVRQASEKGLEWVGRIRSRANSYATAYAASVKDRFTISRDNSKNTAYLQMNSLKTEDTAVYYCIRDTMVRGIDYWGQGTLVTVSS
VL 2: not shown
modifications: Knob-into-hole full-length IgG; constant regions are not in the letters.
notes: also called CD3/CD20 TDB 2H7v16/21A9
Take B14: the concentration for a half-maximal effect (EC50) with human CD3 on T cells [5] was 1.6 µg/mL and 11 nM.
